Measured values published in paper PMC3048824 (Journal of molecular biology, 2009).
Where “and” joins values, the source holds several entries; their conditions need not be identical. Equal entries are not always repeated.

What was measured:
[1] = biological target: the molecule itself; assay: AUC
[2] = biological target: the molecule itself; assay: GdmCl-induced equilibrium unfolding-refolding monitored by CD

B1: full-length NC1 domain of murine collagen XV (domain or fragment)
chain: NLVTALSDMGDMLQKAHLVIEGTFIYLRDSGEFFIRVRDGWKKLQLGELIPIPADSPPPPALSSNPYQPQPPLNPILSANYERPVLHLVALNTPVAGDIRADFQCFQQARAAGLLSTFRAFLSSHLQDLSTVVRKAERFGLPIVNLKGQVLFNNWDSIFSGDGGQFNTHIPIYSFDGRDVMTDPSWPQKVVWHGSNPHGVRLVDKYCEAWRTTDMAVTGFASPLSTGKILDQKAYSCANRLIVLCIENSFMTDTRK
For B1, the “stoichiometry N” value [1] was 3.11 and 3.6.

B2: full-length NC1 domain of murine collagen XVIII (domain or fragment)
chain: AGQVRIWATYQTMLDKIREVPEGWLIFVAEREELYVRVRNGFRKVLLEARTALPRGTGNEVAALQPPLVQLHEGSPYTRREYSYSTARPWRADDILANPPRLPDRQPYPGVPHHHSSYVHLPPARPTLSLAHTHQDFQPVLHLVALNTPLSGGMRGIRGADFQCFQQARAVGLSGTFRAFLSSRLQDLYSIVRRADRGSVPIVNLKDEVLSPSWDSLFSGSQGQLQPGARIFSFDGRDVLRHPAWPQKSVWHGSDPSGRRLMESYCETWRTETTGATGQASSLLSGRLLEQKAASCHNSYIVLCIENSFMTSFSK
B2 was tested, and the “stoichiometry N” value [1] was 2.56.

B3: NC1(54) peptide of human collagen XVIII (domain or fragment)
chain: GSSGVRLWATRQAMLGQVHEVPEGWLIFVAEQEELYVRVQNGFRKVQLEARTPLPR
For B3, the “Keq ([U]^3/[N], native trimer to unfolded monomers, in water)” value [2] was 2.4e-21 mol^2.
